Assay results from US20180311371A1 (Hoffmann-La Roche, published 2018).

Tests used:
[1] = target: T1, human TPBG (trophoblast glycoprotein), full length, cell surface expressed (human, UniProt Q13641 32-420); assay: cell-based or functional assay
T1 sequence: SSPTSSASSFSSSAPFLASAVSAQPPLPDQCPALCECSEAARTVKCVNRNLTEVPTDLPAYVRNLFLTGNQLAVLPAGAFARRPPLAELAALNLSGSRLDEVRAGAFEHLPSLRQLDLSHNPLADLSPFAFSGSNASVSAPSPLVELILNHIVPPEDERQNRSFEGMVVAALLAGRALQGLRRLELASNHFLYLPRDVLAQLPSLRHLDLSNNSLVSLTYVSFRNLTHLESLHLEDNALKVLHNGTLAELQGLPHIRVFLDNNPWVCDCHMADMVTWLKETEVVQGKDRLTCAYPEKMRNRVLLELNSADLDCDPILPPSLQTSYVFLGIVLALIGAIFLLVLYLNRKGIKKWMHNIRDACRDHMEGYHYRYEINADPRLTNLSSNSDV

[2] = target: T1, human TPBG (trophoblast glycoprotein), …; assay: cell-based or functional assay; remark: listed apart in the source
[3] = target: T2, minipig TPBG, full length, cell surface expressed on CHO-K1 cells (minipig); assay: cell-based or functional assay
T2 chain: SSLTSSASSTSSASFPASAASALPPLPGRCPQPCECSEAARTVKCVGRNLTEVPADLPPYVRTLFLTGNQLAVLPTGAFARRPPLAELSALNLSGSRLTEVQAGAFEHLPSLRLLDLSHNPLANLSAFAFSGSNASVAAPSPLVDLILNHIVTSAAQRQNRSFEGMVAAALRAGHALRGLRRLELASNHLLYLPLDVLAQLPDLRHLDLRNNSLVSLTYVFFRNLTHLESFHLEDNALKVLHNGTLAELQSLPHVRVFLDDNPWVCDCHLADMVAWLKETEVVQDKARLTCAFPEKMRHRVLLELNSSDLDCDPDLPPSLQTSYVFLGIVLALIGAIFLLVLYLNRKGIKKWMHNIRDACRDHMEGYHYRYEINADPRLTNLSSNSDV

[4] = target: T1, human TPBG (trophoblast glycoprotein), …; assay: cell-based or functional assay; remark: listed apart in the source
[5] = target: T1, human TPBG (trophoblast glycoprotein), …; assay: cell-based or functional assay; remark: listed apart in the source
[6] = target: T3, huTPBG (recombinant human TPBG immobilised on the Biacore chip) (human, UniProt Q13641 32-355, limits assumed); assay: SPR Biacore T200; huTPBG amine-coupled, Fab injected
T3 construct: also called human TPBG antigen
T3 sequence: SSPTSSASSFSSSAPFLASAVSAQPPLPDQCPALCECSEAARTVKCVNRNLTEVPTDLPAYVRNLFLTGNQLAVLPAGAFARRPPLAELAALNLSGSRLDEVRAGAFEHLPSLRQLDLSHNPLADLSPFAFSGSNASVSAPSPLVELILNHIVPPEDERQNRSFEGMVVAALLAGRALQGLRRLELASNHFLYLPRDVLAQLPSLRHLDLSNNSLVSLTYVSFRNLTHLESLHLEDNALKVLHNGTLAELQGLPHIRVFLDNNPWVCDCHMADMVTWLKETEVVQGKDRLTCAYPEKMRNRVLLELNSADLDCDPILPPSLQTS

[7] = target: T1, human TPBG (trophoblast glycoprotein), …; assay: flow cytometry on SW620 clone 4 cells; ratio of MFI; replicate 1
[8] = target: T1, human TPBG (trophoblast glycoprotein), …; assay: flow cytometry on SW620 clone 4 cells; ratio of MFI; replicate 2
[9] = target: T4, recombinant extracellular domain of minipig TPBG (Biacore analyte) (minipig); assay: SPR Biacore T200; Fab captured by anti-huFab, minipig TPBG injected
T4 chain: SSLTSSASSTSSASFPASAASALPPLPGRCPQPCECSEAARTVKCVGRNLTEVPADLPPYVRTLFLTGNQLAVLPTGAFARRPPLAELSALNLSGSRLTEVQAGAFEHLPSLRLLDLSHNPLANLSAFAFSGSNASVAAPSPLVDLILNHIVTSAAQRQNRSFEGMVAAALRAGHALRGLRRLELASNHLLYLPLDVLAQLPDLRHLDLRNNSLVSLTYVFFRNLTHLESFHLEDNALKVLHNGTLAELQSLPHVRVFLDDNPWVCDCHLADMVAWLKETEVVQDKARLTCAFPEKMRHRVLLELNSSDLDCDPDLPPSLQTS

[10] = target: T5, human TPBG extracellular domain, His6Avi, biotinylated (human, biotinylated); assay: ELISA; biotinylated TPBG-AviHis on streptavidin plate; Fab titrated from 2 µg/ml
T5 construct: also called huTPBG; human TPBG-AviHis
T5 chain: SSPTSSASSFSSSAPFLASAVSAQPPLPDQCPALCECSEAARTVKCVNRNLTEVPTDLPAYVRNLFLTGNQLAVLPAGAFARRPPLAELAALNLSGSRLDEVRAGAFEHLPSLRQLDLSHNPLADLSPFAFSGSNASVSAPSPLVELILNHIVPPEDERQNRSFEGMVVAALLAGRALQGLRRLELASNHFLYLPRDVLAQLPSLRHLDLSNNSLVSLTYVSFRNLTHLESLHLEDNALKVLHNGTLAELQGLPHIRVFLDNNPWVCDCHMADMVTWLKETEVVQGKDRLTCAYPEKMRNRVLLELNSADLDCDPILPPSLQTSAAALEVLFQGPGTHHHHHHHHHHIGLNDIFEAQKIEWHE

B1: anti-TPBG antibody 091, Fab fragment (Fab, V domains shown)
VH: EVHLLESGGGLVHPGGSLRLSCAASGFTFRSDAMHWVRQAPGKGLEWVSGVSGSGGSPYYADSVKGRFTISRDDSKTTLYLQMNSLRAEDTAVYYCATGGSIAGSYYYYPMDVWGQGTTVTVSS
VL: DIQMTQSPSSLSASVGDRVTITCQASQDISNYLNWYQQKPGKAPKLLIYAASTLQIGVPSRFSGSGSGTDFTFTISSLQPEDFATYYCQQANSFPLTFGGGTKVEIK
notes: also called Fab2
internalization after 0.5 h, MCF7 cells [1]: 16% | internalization after 1.0 h, MCF7 cells [1]: 33% | internalization after 2.0 h, MCF7 cells [1]: 42% | EC50 cytotoxicity, Fab + anti-kappa-Fab-PE, CHO-K1/human TPBG, replicate 1 [2]: 230 pM | EC50 cytotoxicity, Fab + anti-kappa-Fab-PE, CHO-K1/human TPBG, replicate 2 [2]: 240 pM | EC50 cytotoxicity, Fab + anti-kappa-Fab-PE, CHO-K1/minipig TPBG, replicate 1 [3]: 1050 pM | EC50 cytotoxicity, Fab + anti-kappa-Fab-PE, CHO-K1/minipig TPBG, replicate 2 [3]: 1200 pM | EC50 cytotoxicity, Fab-PE sandwich construct, MCF7 [4]: 414 pM | X-fold higher potency compared to TPBG(H8)PE, MCF7, first experiment [4]: 3 fold | X-fold higher potency compared to TPBG(H8)PE, MCF7, second experiment [4]: 2.7 fold | EC50 cytotoxicity, Fab-PE sandwich construct, H1975, replicate 1 [5]: 166 pM | EC50 cytotoxicity, Fab-PE sandwich construct, H1975, replicate 2 [5]: 129 pM | EC50 cytotoxicity, Fab-PE sandwich construct, H1975, replicate 3 [5]: 182 pM | Kd [6]: 55.8 pM | koff [6]: 2.72e-05 s⁻¹ | kon [6]: 487000 M⁻¹ s⁻¹ | Fold change pH 7.2 vs pH 5.5 [7]: 0.9 fold | Fold change pH 7.2 vs pH 5.5 [8]: 1 fold | Kd [9]: 1740 pM | koff [9]: 0.000205 s⁻¹ | kon [9]: 118000 M⁻¹ s⁻¹ | EC50 [10]: 0.0277 µg/mL
